Results: publication PMC2816702 (PLoS ONE, 2010)
Values joined by “and” are separate entries in the source; they are usually repeats but may differ in a detail not shown here. Identical values can stand only once.

Tests used:
[1] = target: Recombinant major apple allergen Mal d 1 (apple) (UniProt P43211); assay: native MS; ESI FT-ICR, direct infusion, 10 mM ammonium acetate pH 6.9, allergen (monomer) concentration 9 µM
[2] = target: Recombinant birch pollen profilin Bet v 2 (birch); assay: native MS; ESI FT-ICR, direct infusion, 10 mM ammonium acetate pH 6.9, allergen (monomer) concentration 40 µM
[3] = target: Recombinant major celery allergen Api g 1 (celery); assay: native MS; ESI FT-ICR, direct infusion, 10 mM ammonium acetate pH 6.9, allergen (monomer) concentration 10 µM
[4] = target: the molecule itself; assay: native MS; ESI FT-ICR, direct infusion, 10 mM ammonium acetate pH 6.9, allergen (monomer) concentration 8 µM
[5] = target: T1, Recombinant birch pollen allergen Bet v 1a (birch), P15494; assay: native MS; ESI FT-ICR, direct infusion, 10 mM ammonium acetate pH 6.9, allergen (monomer) concentration 40 µM; conditions: remark: other sources report otherwise
T1 chain: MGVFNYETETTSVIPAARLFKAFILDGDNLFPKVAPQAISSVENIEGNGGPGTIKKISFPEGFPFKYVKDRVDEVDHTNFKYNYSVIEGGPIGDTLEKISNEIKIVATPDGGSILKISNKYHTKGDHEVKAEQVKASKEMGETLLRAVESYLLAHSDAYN

[6] = target: the molecule itself; assay: native MS; ESI FT-ICR, direct infusion, 10 mM ammonium acetate pH 6.9, allergen (monomer) concentration 10 µM
[7] = target: the molecule itself; assay: native MS

## Recombinant major apple allergen Mal d 1 (from UniProt P43211 1-159) (natural protein)
[1]
  stoichiometry N: 2

## Recombinant birch pollen profilin Bet v 2 (natural protein)
[2]
  stoichiometry N: 2 and 3 and 4

## Recombinant major celery allergen Api g 1 (natural protein)
[3]
  stoichiometry N: 2

B1: Recombinant Alternaria alternata allergen Alt a 1 (natural protein)
chain: APLESRQDTASCPVTTEGDYVWKISEFYGRKPEGTYYNSLGFNIKATNGGTLDFTCSAQADKLEDHKWYSCGENSFMDFSFDSDRSGLLLKQKVSDDITYVATATLPNYCRAGGNGPKDFVCQGVADAYITLVTLPKSS
notes: source: bought: Biomay AG (recombinant)
[4]
  stoichiometry N: 2

B2: Recombinant birch pollen allergen Bet v 1a, P15494 1-160 (natural protein)
chain: T1 chain
[5]
  stoichiometry N: 2

B3: Recombinant rubber tree allergen Hev b 8 (natural protein)
chain: SWQTYVDDHLMCDIDGHRLTAAAIIGHDGSVWAQSSSFPQFKSDEVAAVMKDFDEPGSLAPTGLHLGGTKYMVIQGEPGAVIRGKKGSGGITVKKTGQALIIGIYDEPLTPGQCNMIVERLGDYLLDQGL
[6]
  stoichiometry N: 2

B4: Bos d 5 variant A (in native Bos d 5) (natural protein)
chain: LIVTQTMKGLDIQKVAGTWYSLAMAASDISLLDAQSAPLRVYVEELKPTPEGDLEILLQKWENDECAQKKIIAEKTKIPAVFKIDALNENKVLVLDTDYKKYLLFCMENSAEPEQSLVCQCLVRTPEVDDEALEKFDKALKALPMHIRLSFNPTQLEEQCHI
[7]
  abundance ratio among the dimeric species: 18%

B5: Recombinant timothy pollen allergen Phl p 6 (natural protein, UniProt P43215 23-132, looked up)
chain: GKATTEEQKLIEDVNASFRAAMATTANVPPADKYKTFEAAFTVSSKRNLADAVSKAPQLVPKLDEVYNAAYNAADHAAPEDKYEAFVLHFSEALRIIAGTPEVHAVKPGA
notes: as for B1
[6]
  stoichiometry N: 2 and 3
